For the experiment, the target named is T1, Rnr2-Rnr4 heterodimer (ribonucleotide reductase small subunit) (S. cerevisiae, UniProt P09938 1-399; P49723 1-345).
T1 sequence (looked up) 1: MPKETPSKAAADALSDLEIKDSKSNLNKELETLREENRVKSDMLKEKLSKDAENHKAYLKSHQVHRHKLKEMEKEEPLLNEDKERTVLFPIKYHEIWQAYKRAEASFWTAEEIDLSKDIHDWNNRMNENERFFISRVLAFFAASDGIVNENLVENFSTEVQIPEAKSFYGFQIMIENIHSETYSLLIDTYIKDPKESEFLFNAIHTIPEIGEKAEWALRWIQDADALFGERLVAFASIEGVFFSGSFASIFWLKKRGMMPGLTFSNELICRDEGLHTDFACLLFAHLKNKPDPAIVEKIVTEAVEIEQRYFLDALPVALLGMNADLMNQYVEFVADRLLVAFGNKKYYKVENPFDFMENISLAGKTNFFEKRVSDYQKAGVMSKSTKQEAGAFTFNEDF
T1 sequence (looked up) 2: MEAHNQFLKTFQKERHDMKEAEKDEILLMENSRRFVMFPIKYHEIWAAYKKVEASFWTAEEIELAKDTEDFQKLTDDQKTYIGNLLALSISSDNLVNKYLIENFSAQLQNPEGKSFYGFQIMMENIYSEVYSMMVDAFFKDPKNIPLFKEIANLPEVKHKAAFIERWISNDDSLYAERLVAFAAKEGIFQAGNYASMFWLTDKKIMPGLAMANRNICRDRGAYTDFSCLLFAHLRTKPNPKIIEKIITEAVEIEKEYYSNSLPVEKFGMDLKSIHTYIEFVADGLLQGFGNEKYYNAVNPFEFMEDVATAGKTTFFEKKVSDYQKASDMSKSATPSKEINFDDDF
In words: SPR.

B1: Recombinant wild-type Dif1 protein (His6-Dif1) (natural protein, S. cerevisiae, UniProt O13577 1-133, looked up)
chain: MDAQLEWASSLVPKRQLQQQQQQQEQQQQQQQDFHKDQLMTVGMRIRQRVDQGYASRTPSTSDASLQPGVIRDYSSVIVPQFTRSPLPTANSLPPMLINQRTMSTEASSLEKWDVAEPAAEHETMVNGSKRRL
In turn, B1 yielded a dissociation constant (Kd) of 600 nM.

The values are drawn from publication PMC3245869 (Molecular cell, 2008).
